Laboratory results from PMC2836954 (Molecular Biology of the Cell, 2010).
Each block holds one molecule with its values, some of them ahead of it.

Key:
Test in all cases: pull-down
[1] = molecular target: the active ARF1 mutants ARF-Q71L and ARF1-Δ17-Q71L
[2] = molecular target: GST-ARF1 Δ17-Q71L (human, UniProt P84077 18-181, Q71L)
[3] = molecular target: GST-ARF1-Q71L (human, UniProt P84077 1-181, Q71L)
Chain of GST-ARF1-Q71L (P84077 whole entry Q71L): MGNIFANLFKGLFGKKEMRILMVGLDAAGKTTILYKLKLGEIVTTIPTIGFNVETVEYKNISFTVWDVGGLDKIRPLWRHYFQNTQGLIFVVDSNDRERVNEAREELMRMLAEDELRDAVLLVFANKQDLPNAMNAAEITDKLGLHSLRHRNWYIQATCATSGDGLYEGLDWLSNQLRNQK

Chain of GST-ARF1 Δ17-Q71L (P84077 18-181 Q71L): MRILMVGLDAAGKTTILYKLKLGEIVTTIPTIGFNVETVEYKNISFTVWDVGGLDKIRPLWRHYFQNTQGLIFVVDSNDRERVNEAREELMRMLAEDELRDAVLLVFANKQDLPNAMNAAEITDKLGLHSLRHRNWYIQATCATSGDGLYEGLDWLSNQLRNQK

Molecule: His-tagged C1b domain of PKD2 (domain or fragment)
- fold binding compared with wild-type or dominant-negative ARF1 [1]: 1.5 to 1.75 fold

- fold binding compared with ARF1-WT [2]: 2 fold
- fold binding compared with ARF1-WT or ARF1-T31N [3]: 2 fold
B1: EGFP-PKD2-WT (protein kinase D2, wild type) (enzyme, UniProt Q9BZL6 1-878, looked up)
chain: MATAPSYPAGLPGSPGPGSPPPPGGLELQSPPPLLPQIPAPGSGVSFHIQIGLTREFVLLPAASELAHVKQLACSIVDQKFPECGFYGLYDKILLFKHDPTSANLLQLVRSSGDIQEGDLVEVVLSASATFEDFQIRPHALTVHSYRAPAFCDHCGEMLFGLVRQGLKCDGCGLNYHKRCAFSIPNNCSGARKRRLSSTSLASGHSVRLGTSESLPCTAEELSRSTTELLPRRPPSSSSSSSASSYTGRPIELDKMLLSKVKVPHTFLIHSYTRPTVCQACKKLLKGLFRQGLQCKDCKFNCHKRCATRVPNDCLGEALINGDVPMEEATDFSEADKSALMDESEDSGVIPGSHSENALHASEEEEGEGGKAQSSLGYIPLMRVVQSVRHTTRKSSTTLREGWVVHYSNKDTLRKRHYWRLDCKCITLFQNNTTNRYYKEIPLSEILTVESAQNFSLVPPGTNPHCFEIVTANATYFVGEMPGGTPGGPSGQGAEAARGWETAIRQALMPVILQDAPSAPGHAPHRQASLSISVSNSQIQENVDIATVYQIFPDEVLGSGQFGVVYGGKHRKTGRDVAVKVIDKLRFPTKQESQLRNEVAILQSLRHPGIVNLECMFETPEKVFVVMEKLHGDMLEMILSSEKGRLPERLTKFLITQILVALRHLHFKNIVHCDLKPENVLLASADPFPQVKLCDFGFARIIGEKSFRRSVVGTPAYLAPEVLLNQGYNRSLDMWSVGVIMYVSLSGTFPFNEDEDINDQIQNAAFMYPASPWSHISAGAIDLINNLLQVKMRKRYSVDKSLSHPWLQEYQTWLDLRELEGKMGERYITHESDDARWEQFAAEHPLPGSGLPTDRDLGGACPPQDHDMQGLAERISVL
